Test results published in PMC3459908 (2012).
Values belong to the molecule of their own block, whether it stands above or below them.

Columns and labels:
BMP2 (Homo sapiens) = BMP2 (Homo sapiens) (UniProt P12643); experiment: SPR; details: cited from earlier work
BMP6 [1] = biological target: T1, BMP6 (Homo sapiens, UniProt P22004); experiment: SPR
T1 chain: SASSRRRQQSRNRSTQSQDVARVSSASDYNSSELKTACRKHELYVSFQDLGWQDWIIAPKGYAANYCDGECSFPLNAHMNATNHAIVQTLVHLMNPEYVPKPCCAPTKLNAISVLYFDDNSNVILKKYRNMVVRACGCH

BMP7 [2] = biological target: T2, BMP7 (Homo sapiens, UniProt P18075); experiment: SPR
T2 chain: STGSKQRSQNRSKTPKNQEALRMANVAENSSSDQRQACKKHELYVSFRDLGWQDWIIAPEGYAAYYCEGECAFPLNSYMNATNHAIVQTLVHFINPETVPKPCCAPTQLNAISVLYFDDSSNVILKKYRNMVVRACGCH

BMP4 [3] = biological target: T3, BMP4 (Homo sapiens, UniProt P12644); experiment: SPR
T3 chain: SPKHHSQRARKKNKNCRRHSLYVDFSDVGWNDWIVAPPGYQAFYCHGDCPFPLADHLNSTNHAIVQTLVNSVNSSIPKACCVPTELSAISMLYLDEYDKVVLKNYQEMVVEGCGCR

BMP5 [4] = biological target: T4, BMP5 (Homo sapiens, UniProt P22003); experiment: SPR
T4 chain: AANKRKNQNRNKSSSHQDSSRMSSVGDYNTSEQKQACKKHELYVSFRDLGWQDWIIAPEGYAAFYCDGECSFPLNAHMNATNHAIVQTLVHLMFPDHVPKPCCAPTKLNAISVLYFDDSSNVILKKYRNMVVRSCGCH

BMP2 [5] = biological target: T5, BMP2 (Homo sapiens, UniProt P12643); experiment: SPR
T5 chain: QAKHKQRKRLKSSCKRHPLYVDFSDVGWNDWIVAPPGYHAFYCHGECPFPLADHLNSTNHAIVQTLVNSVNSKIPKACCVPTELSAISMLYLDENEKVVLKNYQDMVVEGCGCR

BMP9 = biological target: T6, BMP9 (Homo sapiens (Human),Homo sapiens …, UniProt Q9UK05,Q9UK05); experiment: SPR kinetic 1:1, BMP immobilised, full soluble RGM analyte
T6 chain 1: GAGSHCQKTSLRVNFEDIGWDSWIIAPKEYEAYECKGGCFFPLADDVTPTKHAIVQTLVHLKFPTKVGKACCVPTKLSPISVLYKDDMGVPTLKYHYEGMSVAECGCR
T6 chain 2: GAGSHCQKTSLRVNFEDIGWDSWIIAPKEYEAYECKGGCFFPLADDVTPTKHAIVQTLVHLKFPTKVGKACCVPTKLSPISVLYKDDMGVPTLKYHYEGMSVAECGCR

BMP7 [6] = biological target: T7, BMP7 (Homo sapiens (Human),Homo sapiens …, UniProt P18075,P18075); experiment: as above
T7 chain 1: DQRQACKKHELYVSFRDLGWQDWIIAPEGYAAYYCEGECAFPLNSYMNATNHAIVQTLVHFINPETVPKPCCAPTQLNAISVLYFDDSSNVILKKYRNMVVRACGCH
T7 chain 2: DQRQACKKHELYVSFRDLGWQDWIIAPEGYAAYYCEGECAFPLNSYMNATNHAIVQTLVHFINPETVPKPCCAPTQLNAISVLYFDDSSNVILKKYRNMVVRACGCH

BMP4 [7] = biological target: T8, BMP4 (Homo sapiens (Human),Homo sapiens …, UniProt P12644,P12644); experiment: as above
T8 chain 1: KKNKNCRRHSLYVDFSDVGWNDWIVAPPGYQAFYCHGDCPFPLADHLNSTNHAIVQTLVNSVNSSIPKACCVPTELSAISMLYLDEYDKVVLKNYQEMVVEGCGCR
T8 chain 2: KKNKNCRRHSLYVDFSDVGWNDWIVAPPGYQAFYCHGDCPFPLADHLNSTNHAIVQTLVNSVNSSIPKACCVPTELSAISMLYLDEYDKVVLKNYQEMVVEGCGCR

BMP2 [8] = biological target: T9, BMP2 (Homo sapiens (Human),Homo sapiens …, UniProt P12643,P12643); experiment: as above
T9 chain 1: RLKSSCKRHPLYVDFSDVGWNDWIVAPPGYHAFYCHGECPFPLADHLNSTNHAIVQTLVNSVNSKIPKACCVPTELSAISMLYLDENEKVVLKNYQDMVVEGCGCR
T9 chain 2: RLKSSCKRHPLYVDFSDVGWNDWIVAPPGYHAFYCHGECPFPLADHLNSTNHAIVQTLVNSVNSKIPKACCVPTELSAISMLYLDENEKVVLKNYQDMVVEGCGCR

BMP6 [9] = biological target: T10, BMP6 (Homo sapiens (Human),Homo sapiens …, UniProt P22004,P22004); experiment: as above
T10 chain 1: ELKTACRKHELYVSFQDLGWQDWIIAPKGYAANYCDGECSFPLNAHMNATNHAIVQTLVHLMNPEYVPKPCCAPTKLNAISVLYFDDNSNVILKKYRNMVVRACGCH
T10 chain 2: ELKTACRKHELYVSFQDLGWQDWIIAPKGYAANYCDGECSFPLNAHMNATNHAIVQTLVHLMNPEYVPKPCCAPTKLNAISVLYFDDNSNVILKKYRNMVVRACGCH

BMP5 [10] = biological target: T11, BMP5 (Homo sapiens (Human),Homo sapiens …, UniProt P22003,P22003); experiment: as above
T11 chain 1: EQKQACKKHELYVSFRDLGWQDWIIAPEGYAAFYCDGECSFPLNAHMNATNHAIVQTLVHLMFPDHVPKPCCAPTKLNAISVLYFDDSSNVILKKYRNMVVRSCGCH
T11 chain 2: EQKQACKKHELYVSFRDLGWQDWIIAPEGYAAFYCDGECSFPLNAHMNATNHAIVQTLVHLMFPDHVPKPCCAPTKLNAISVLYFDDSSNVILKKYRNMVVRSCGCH

Molecule: HJV (from UniProt Q6ZVN8)
Kd (BMP2 (Homo sapiens)): 140 nM

B1: HJV (protein)
chain: QCKILRCNAEYVSSTLSLRGGGSSGALRGGGGGGRGGGVGSGGLCRALRSYALCTRRTARTCRGDLAFHSAVHGIEDLMIQHNCSRQGPTAPPPPRGPALPGAGSGLPAPDPCDYEGRFSRLHGRPPGFLHCASFGDPHVRSFHHHFHTCRVQGAWPLLDNDFLFVQATSSPMALGANATATRKLTIIFKNMQECIDQKVYQAEVDNLPVAFEDGSINGGDRPGGSSLSIQTANPGNHVEIQAAYIGTTIIIRQTAGQLSFSIKVAEDVAMAFSAEQDLQLCVGGCPPSQRLSRSERNRRGAITIDTARRLCKEGLPVEDAYFHSCVFDVLISGDPNFTVAAQAALEDARAFLPDLEKLHLFPSD
Kd (BMP6 [1]): 8.1 nM
Kd (BMP7 [2]): 20 nM
Kd (BMP4 [3]): 4.5 nM
Kd (BMP5 [4]): 17 nM
Kd (BMP2 [5]): 9.4 nM

B2: RGMA (protein)
chain: PCKILKCNSEFWSATSGSHAPASDDTPEFCAALRSYALCTRRTARTCRGDLAYHSAVHGIEDLMSQHNCSKDGPTSQPRL
Kd (BMP9): > 100 nM

Other lines, results leading:

Kd (BMP6 [1]): 28 nM
B3: RGMB (protein)
chain: GDCQQPAQCRIQKCTTDFVSLTSHLNSAVDGFDSEFCKALRAYAGCTQRTSKACRGNLVYHSAVLGISDLMSQRNCSKDGPTSSTNPEVTHDPCNYHSHAGAREHRRGDQNPPSYLFCGLFGDPHLRTFKDNFQTCKVEGAWPLIDNNYLSVQVTNVPVVPGSSATATNKITIIFKAHHECTDQKVYQAVTDDLPAAFVDGTTSGGDSDAKSLRIVERESGHYVEMHARYIGTTVFVRQVGRYLTLAIRMPEDLAMSYEESQDLQLCVNGCPLSERIDDGQGQVSAILGHSLPRTSLVQAWPGYTLETANTQCHEKMPVKDIYFQSCVFDLLTTGDANFTAAAHSALEDVEALHPRKERWHIFPSSGN

Kd (BMP7 [6]): 20 nM
Kd (BMP9): > 200 nM
Kd (BMP4 [7]): 4.5 nM
Kd (BMP2 [8]): 9.4 nM
Kd (BMP6 [9]): 8.1 nM
Kd (BMP5 [10]): 17 nM
B4: RGMC (protein)
chain: QCKILRCNAEYVSSTLSLRGGGSSGALRGGGGGGRGGGVGSGGLCRALRSYALCTRRTARTCRGDLAFHSAVHGIEDLMIQHNCSRQGPTAPPPP

Kd (BMP7 [6]): 166 nM
Kd (BMP9): > 30 nM
Kd (BMP4 [7]): 2.6 nM
Kd (BMP2 [8]): 5.5 nM
Kd (BMP5 [10]): 33 nM
B5: RGMB (protein)
chain: QCRIQKCTTDFVSLTSHLNSAVDGFDSEFCKALRAYAGCTQRTSKACRGNLVYHSAVLGISDLMSQRNCSKDGPTSSTNP

Kd (BMP6 [1]): 55 nM
Kd (BMP7 [2]): 63 nM
Kd (BMP4 [3]): 14 nM
Kd (BMP5 [4]): 83 nM
Kd (BMP2 [5]): 22 nM
B6: RGMA (protein)
chain: PHLRTFTDRFQTCKVQGAWPLIDNNYLNVQVTNTPVLPGSAATATSKLTIIFKNFQECVDQKVYQAEMDELPAAFVDGSKNGGDKHGANSLKITEKVSGQHVEIQAKYIGTTIVVRQVGRYLTFAVRMPEEVVNAVEDWDSQGLYLCLRGCPLNQQIDFQAFHTNAEGTGARRLAAASPAPTAPETFPYETAVAKCKEKLPVEDLYYQACVFDLLTTGDVNFTLAAYYALEDVKMLHSNKDKLHLYERTRDLPGRA
